The text below walks through data of article PMC3622243.

For assay [1], the target named is HLA-B27 heterotrimer complexed with the HIV GAG-KK10 L6M escape mutant peptide (human | not stated | HIV). The assay can be described thus: SPR. In general terms: Surface plasmon resonance follows binding to a sensor surface in real time, without labels.
Assay [2] has as its target HLA-B27 free heavy chains generated from immobilised heterotrimers (human). Kind of assay: SPR.
A further assay concerns the target HLA-A3 heterotrimer. The assay can be described thus: SPR.
Assay [3] concerns the target HLA-B*2705 expressed by transfected LBL.721.221 cells (human). Kind of assay: flow cytometry on cells. (In general: A flow cytometer gives signals particle by particle.)
The target of assay [4] is HLA-A2 expressed by transfected LBL.721.221 cells (human). The assay can be described thus: flow cytometry on cells.
Assay [5] has as its target HLA-B35 expressed by transfected LBL.721.221 cells (human). The assay can be described thus: flow cytometry on cells.
For assay [6], the target named is c67s mutant of HLA-B*2705 expressed by transfected LBL.721.221 cells (human). The assay can be described thus: flow cytometry on cells.
Assay [7] deals with HLA-A3 expressed by transfected LBL.721.221 cells (human). The assay can be described thus: flow cytometry on cells.

pKd: −log10 of the molar value.

For the substance “LILRB1 incorporating the two immunoglobulin-like domains D1 and D2 (domain or fragment)”, in assay [1], the negative-log Kd (pKd) – broadly, the Kd on a negative log10 scale, so that one unit is a factor of ten – is 5.41.
As to “LILRB2 incorporating the two immunoglobulin-like domains D1 and D2 (domain or fragment)”, the pKd in assay [2] is 5.59; in assay [1] it was 4.80; with HLA-A3 heterotrimer, 4.60.
Take “Soluble LILRB2Fc incorporating the D1, D2, D3 and D4 domains of LILRB2 (Fc fusion)”: the geometric mean fluorescent intensity in assay [3] was found to be 568; in assay [4], 233; in assay [5] it was 81; in assay [6] it was 24; in assay [7], 107. The substance also had a geometric mean fluorescent intensity after inhibition with HC10 in assay [3] of 244. This substance also registered a geometric mean fluorescent intensity after inhibition with W632 in assay [3] of 161. In addition, in assay [3], the geometric mean fluorescent intensity after isotype control MAbs worked out at 489.
